The values below come from publication PMC8726733 (mAbs, 2021).

Experiment [1] addresses biotinylated avitag-labeled canine CTLA4 (dog, UniProt Q9XSI1, biotin (biotinylated avitag)). As to the kind of experiment: ELISA. In general terms: ELISA stands for enzyme-linked immunosorbent assay.
In experiment [2] the target is feline CTLA4 of feline CD5+ leucocytes (Felis catus, endogenous; allele not …, UniProt Q9XSY7). Kind of experiment: flow cytometry on cells. For orientation: In flow cytometry, cells or beads pass a laser one at a time.

Sequence of biotinylated avitag-labeled canine CTLA4 (Q9XSI1 36-161): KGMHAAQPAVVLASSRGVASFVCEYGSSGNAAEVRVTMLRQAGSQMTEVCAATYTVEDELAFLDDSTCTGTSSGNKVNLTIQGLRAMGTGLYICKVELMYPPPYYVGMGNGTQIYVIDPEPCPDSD

B1: A1 soluble canine anti-cCTLA4 scFv (scFv, V domains shown)
VH: EVQLVESGGDLVKPAGSLRLSCVASGFSFSSYAMNWVRQAPGKGLQWIAGINSGGSSTSHIDAIKGRFTISRDNAKNTLYLQMNSLRAEDTAVYYCAISNWAYWGQGTLVTVSS
VL: QAVLNQPASVSGSLGQRVTISCTGSSSDIGKSYVAWYQQLPGTGPRTLINVDGNRASGVPDRFSVSRSGNTATLTISGLQAEDEADYHCSSWDWSLHTYVFGSGTQLTIL
Take B1: the binding result in experiment [1] is “binds”.

B2: A1mut2 fully canine IgGA (antibody, V domains shown)
VH: EVQLVETGGDLVKPGGSLRLSCVASGFSFSSYAMNWVRQAPEKGLQLVGGINSGGSSTYYTDAVKGRFTISRDNAKNTVYLQMNSLRAEDTAVYYCAISNWAYWGQGTLVTVSS
VL: QAVLNQPASVSGSLGQRVTISCTGSSSDIGKSYVAWYQQLPGTGPRTLINVDGNRASGVPDRFSVSRSGNTATLTISGLQAEDEADYHCSSWDWSLHTYVFGSGTQLTIL
As for B2, the binding result in experiment [2] is reported as “binds”.
